This is an account of results in patent USRE48558 (Genentech, dated 2021).

Where no end group is shown, it is not given here.

Assay [1] concerns the target T1, human CD79b on the cell surface (human, UniProt P40259 29-229).
T1 construct: In the Scatchard analysis the BJAB line also stably expressed cynomolgus CD79b; also called PRO36249; endogenous human CD79b on DoHH-2, BJAB and BJAB-luciferase cells
T1 sequence: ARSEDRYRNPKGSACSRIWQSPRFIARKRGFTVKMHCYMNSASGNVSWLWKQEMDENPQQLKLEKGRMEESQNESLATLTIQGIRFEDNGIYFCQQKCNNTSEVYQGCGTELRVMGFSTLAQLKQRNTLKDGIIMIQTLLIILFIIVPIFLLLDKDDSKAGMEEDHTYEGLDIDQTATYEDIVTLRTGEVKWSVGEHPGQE
The assay can be described thus: Scatchard analysis, IgG, BJAB cells stably expressing cynomolgus CD79b and endogenous human CD79b.

The target in assay [2] is T2, extracellular domain of human CD79b fused to Fc (human, UniProt P40259 29-159).
T2 construct: also called huCD79becd-Fc; huCD79b-Fc; not shown: Fc part of the fusion
T2 sequence: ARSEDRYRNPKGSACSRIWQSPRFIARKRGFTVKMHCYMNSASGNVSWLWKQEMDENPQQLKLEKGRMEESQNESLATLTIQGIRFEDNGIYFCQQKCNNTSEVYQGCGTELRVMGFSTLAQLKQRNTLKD
The assay is described as follows: SPR (Biacore), IgG compared with Fab, immobilized huCD79becd-Fc.

Assay [3] has as its target T1, human CD79b on the cell surface. The assay is described as follows: Scatchard analysis, 125I-labelled IgG competed with unlabelled IgG on BJAB cells stably expressing cynomolgus CD79b and endogenous human CD79b.
In assay [4] the target is T2, extracellular domain of human CD79b …. The assay is described as follows: SPR (Biacore), Fab against MA79b Fab, immobilized huCD79becd-Fc. A general note: Surface plasmon resonance follows binding to a sensor surface in real time, without labels.
In assay [5] the target is T3, 16 amino acid peptide containing the epitope for MA79b (ARSEDRYRNPKGSACK) (human, also: biotinylated, site not given here).
T3 construct: Synthetic
T3 peptide: ARSEDRYRNPKGSACK
The assay can be described thus: SPR (Biacore), biotinylated peptide captured on streptavidin chip.

Assay [6] concerns the target T4, extracellular domain of human CD79b (human, UniProt P40259 29-159).
T4 construct: also called huCD79becd; huCD79b-ecd
T4 sequence: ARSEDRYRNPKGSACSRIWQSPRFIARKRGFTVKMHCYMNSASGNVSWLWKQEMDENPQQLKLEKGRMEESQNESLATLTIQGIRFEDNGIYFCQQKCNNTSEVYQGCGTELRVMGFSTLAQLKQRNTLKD
The assay can be described thus: SPR (Biacore), IgG, immobilized huCD79becd; reference not given.

Assay [7] has as its target T4, extracellular domain of human CD79b. The assay is described as follows: FACS analysis, IgG (data not shown); reference not given.

B1: MA79b-grafted humanized antibody variant 28 (antibody, human IgG1, kappa)
light: DIQLTQSPSSLSASVGDRVTITCKASQSVDYEGDSFLNWYQQKPGKAPKLLIYAASNLESGVPSRFSGSGSGTDFTLTISSLQPEDFATYYCQQSNEDPLTFGQGTKVEIKRTVAAPSVFIFPPSDEQLKSGTASVVCLLNNFYPREAKVQWKVDNALQSGNSQESVTEQDSKDSTYSLSSTLTLSKADYEKHKVYACEVTHQGLSSPVTKSFNRGEC
heavy: not shown
notes: IgG; also called huMA79b.v28
As a reminder, the Kd is the constant that tells how readily two partners part at equilibrium. Read a low Kd as higher affinity. On to B1, for which the affinity in assay [1], expressed as Kd, was 0.44 nM.

B2: murine anti-CD79b monoclonal antibody MA79b (antibody, V domains shown)
VL: DIVLTQSPASLAVSLGQRATISCKASQSVDYDGDSFLNWYQQKPGQPPKLFIYAASNLESGIPARFSGSGSGTDFTLNIHPVEEEDAATYYCQQSNEDPLTFGAGTELELKR
VH: EVQLQQSGAELMKPGASVKISCKATGYTFSSYWIEWVKQRPGHGLEWIGEILPGGGDTNYNEIFKGKATFTADTSSNTAYMQLSSLTSEDSAVYYCTRRVPVYFDYWGQGTSVTVSS
notes: Murine IgG; 125I-labelled in the Scatchard analysis; also called murine CD79b antibody; original mouse anti-CD79b monoclonal antibody
Turning to B2, in assay [2], the “fold avidity component (IgG against Fab of MA79b)” value came to 100 fold. Besides, the Kd in assay [3] came to 0.63 nM.

B3: huMA79b L2-2 (Fab) (Fab, name in Kabat numbering, V domains shown)
VH: EVQLVESGGGLVQPGGSLRLSCAASGYTFSSYWIEWVRQAPGKGLEWVGEILPGGGDTNYNEIFKGRFTISADTSKNTAYLQMNSLRAEDTAVYYCTRRVPVYFDYWGQGTLVTVSS
VL: DIQMTQSPSSLSASVGDRVTITCKASQSVDYDGDSFLNWYQQKPGKAPKLLIYAARKLGRGVPSRFSGSGSGTDFTLTISSLQPEDFATYYCQQSNEDPLTFGQGTKVEIKR
notes: Fab on phage in the selection; purified Fab in FACS and Biacore; rest as huMA79b graft; also called L2-2 mutation; MA79b-grafted humanized antibody variant L2-2
For the molecule B3, the “fold improvement in monomeric binding compared to MA79b” value in assay [4] came to 5 fold.

B4: MA79b-grafted humanized antibody variant L2/H3 (antibody, name in Kabat numbering, V domains shown)
VH: EVQLVESGGGLVQPGGSLRLSCAASGYTFSSYWIEWVRQAPGKGLEWVGEILPGGGDTNYNEIFKGRFTISADTSKNTAYLQMNSLRAEDTAVYYCTRRVPIRLDYWGQGTLVTVSS
VL: DIQMTQSPSSLSASVGDRVTITCKASQSVDYDGDSFLNWYQQKPGKAPKLLIYAARKLGRGVPSRFSGSGSGTDFTLTISSLQPEDFATYYCQQSNEDPLTFGQGTKVEIKR
notes: 125I-labelled in the Scatchard analysis; also called huMA79b L2/H3
B4: the binding result in assay [5] is “binds”. Moreover, in assay [3], the Kd was 0.52 nM.

B5: MA79b-grafted humanized antibody (IgG) (antibody, V domains shown)
VH: EVQLVESGGGLVQPGGSLRLSCAASGYTFSSYWIEWVRQAPGKGLEWVGEILPGGGDTNYNEIFKGRFTISADTSKNTAYLQMNSLRAEDTAVYYCTRRVPVYFDYWGQGTLVTVSS
VL: DIQMTQSPSSLSASVGDRVTITCKASQSVDYDGDSFLNWYQQKPGKAPKLLIYAASNLESGVPSRFSGSGSGTDFTLTISSLQPEDFATYYCQQSNEDPLTFGQGTKVEIKR
notes: Expressed as IgG; also called huMA79b graft; huMA79b-graft
Regarding B5, in assay [6], the “fold loss of affinity” value was above 50 fold. The “fold reduction in binding affinity” value in assay [7] is above 100 fold.
